Measurements taken from the RNAGym collection of RNA variant scans (doi:10.1073/pnas.2313332121).
Variants at the floor of the assay were thinned out.

B1: TPR 5TU (parent)
chain: GGAUCUUCUCGAUCUAACAAAAAAGACAAAUCUGCCACAAAGCUUGAGAGCAUCUUCGGAUGCAGAGGCGGCAGCCUUCGGUGGCGCGAUAGCGCCAACGUUCUCAACUAUGACACGCAAAACGCGUGCUCCGUUGAAUGGAGUUUAUCAUG

Variants of: B1
Experiment: polymerase ribozyme fitness, log enrichment relative to wild type (log ratio); higher = more active; in vitro selection for triplet polymerase activity
In short: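 For each subunit of a heterodimeric triplet polymerase ribozyme, a mutant library was built by PCR and transcribed, then taken through a single in vitro selection round in triplicate. Selection involved annealing to a biotinylated primer, the partner subunit and triplets, incubation frozen at −7 °C, gel excision of extended constructs, capture on streptavidin beads and RT-PCR. Genotypes were retained after Illumina sequencing of inputs and outputs only with ≥10 input reads and ≥1 read in each output. Fitness is defined as the logarithm of a genotype's enrichment relative to wild-type enrichment, using inverse-variance-weighted averages across replicates, with the logarithm taken to base 2.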

Row | Variant | polymerase ribozyme fitness (log ratio)
1 | C10G A39U G84A | ≤ -4.2
2 | U9C C85U | -3.24
3 | C10G C95U | -3.16
4 | G11C U53A C72G C79A U82A U90G A106C | ≤ -4.2
5 | G11C U15G A40C C87A U148G | ≤ -4.2
6 | G11C C35U | -2.11
7 | C10G U146G | -4.19
8 | U9A C75G C85G C95G | ≤ -4.2
9 | G11C C27U G92U | -2.73
10 | C10A C14U A30U C51A C57G G84A | ≤ -4.2
11 | C10A G58C A66U G80A C95U C96U U144G | ≤ -4.2
12 | U9G A12U A19U A21U G58A C76U G84A A106U | ≤ -4.2
13 | U9G U55A C96G C116A | -4.14
14 | C10A A17C G34A A91C U102G G140U | -3.67
15 | C10U G25C G80A C87G | ≤ -4.2
16 | C10G A21U A91G | ≤ -4.2
17 | C10A U53A C85A C96G G100A U127C U146A | ≤ -4.2
18 | G11C C14A A16G C87U | ≤ -4.2
19 | C10U U135A G141A C149G | ≤ -4.2
20 | C10A A37U G48A A64G G128U A142C | ≤ -4.2
21 | C10U G42C A49C A66G C79G A91G C125A A147G A150C | ≤ -4.2

Row | Variant | polymerase ribozyme fitness (log ratio)
22 | C10G A29C A30U G48U U55A A89U C93G G128U | ≤ -4.2
23 | U9C A37C U55G A66C G70C C76A C131U | ≤ -4.2
24 | G11U C18U G84U | -3.2
25 | G11U A12G U15A G58C G94U U151G | ≤ -4.2
26 | C10U G94A | -2.69
27 | U9G A17G A41G U53A U77G G84U C116A G141A A147G | ≤ -4.2
28 | G11A A23U A66C G92A C114U C125A | ≤ -4.2
29 | C8U U15C A17U A40G G42C U61G C75U C93U C129U G133U | ≤ -4.2
30 | C10G A20C A40U A64G G70U C87U | ≤ -4.2
31 | G11C A41C C95A U146G | -3.34
32 | G11A C27G U53A G83U G86A G140A | ≤ -4.2
33 | C10A A12U A47U C93G A137G | ≤ -4.2
34 | U9C C14U C57G C93G G140U | ≤ -4.2
35 | C10A A37U C79A C85U C87A | ≤ -4.2
36 | G11U A21U G74C G92U | ≤ -4.2
37 | C10G C85G G92A C125G | ≤ -4.2
38 | G11C C32U C69A A121G | -4.12
39 | U9C C10G | -4.15
40 | C10G U144C | -3.87
41 | C10G A20G G50U G59C C87U | ≤ -4.2
42 | G11A A49C | ≤ -4.2

Row | Variant | polymerase ribozyme fitness (log ratio)
43 | C10G A52G U56A C96U G140U | ≤ -4.2
44 | U9C A17C C54U A120G | ≤ -4.2
45 | U9C U31A U55A G59C U82G C108A C129G U144C | ≤ -4.2
46 | G11A U82A | -1.4
47 | C10A C14U A26U A30G G84A U139G A142U | ≤ -4.2
48 | G11C C125G A142C | ≤ -4.2
49 | G11A A21U C87A | ≤ -4.2
50 | C10U G25U C32A C76A G83U G88C C93G | ≤ -4.2
51 | U9A C93G | ≤ -4.2
52 | C10A U15G G58A G86U A98G A138U | ≤ -4.2
53 | C10G A73G G92U | ≤ -4.2
54 | C10U C54A C69U C75U C87A | ≤ -4.2
55 | C10G U61A C93A U139A | ≤ -4.2
56 | G11A C96G A120C U146C | -1.48
57 | G11U C38A A40C U53A G58A | -3.76
58 | U9A A28G A41C A64U G80U C87A C95U C131G | ≤ -4.2
59 | G11A C51U G81C G92A U151A | ≤ -4.2
60 | G11A U55A | -1.11
61 | C10G A29U G34U C38A C87G G88A A122U G136C | ≤ -4.2
62 | U9A A21G A41C G48U A49C U111G C131A | ≤ -4.2
63 | C10G A26C C75A G84A | ≤ -4.2

Row | Variant | polymerase ribozyme fitness (log ratio)
64 | C10G A26C C76A G83A | ≤ -4.2
65 | C10A A47G A64G G81U G84U | ≤ -4.2
66 | C10U G25U A40U C79U G84A A142C | ≤ -4.2
67 | U9A C10G G48U C63G C85A A137G G141U | ≤ -4.2
68 | G11U C35U C51U U55G G59U G68A G80A G83A | ≤ -4.2
69 | C10U U53A C54U U55A C75G C105U G143U U145C U148A | ≤ -4.2
70 | U9C G58C A91G C105G A110G | ≤ -4.2
71 | C10G A89G | ≤ -4.2
72 | G11U A16U A52C G58C G65A C79A G83U C93U C118A | ≤ -4.2
73 | C10A C27G G46A C75A C96A | ≤ -4.2
74 | C10U C27G C54U C95G C96G A110G | ≤ -4.2
75 | G11C C35G A52U C63A G94A C131U | ≤ -4.2
76 | C10U A52U C85A | ≤ -4.2
77 | U9G A24U C96U U144G | ≤ -4.2
78 | G11A A41U A60G U77C C87A | ≤ -4.2
79 | G11U C14G A26G U33G C57A C99G A120G | ≤ -4.2
80 | G11U C69U U134C | -1.33
81 | G11U A30U G65U G70C C85G A91U C93A A150U | ≤ -4.2
82 | G11C U33G C38U A47C A49C G92A A97G U111G C118U G133U | -4.17
83 | G11A U55A A73G | -1.2
